# Experimental data published in paper PMC11329700.
# B1: GST-Dyn1xA-PRR (dynamin 1xA proline-rich region, amino acids 746-864) [rat] / Amphiphysin 1 [rat (endogenous in rat brain synaptosomes)] (parent)
# chain 1: NTTTVSTPMPPPVDDSWLQVQSVPAGRRSPTSSPTPQRRAPAVPPARPGSRGPAPGPPPAGSALGGAPPVPSRPGASPDPFGPPPQVPSRPNRAPPGVPSRSGQASPSRPESPRPPFDL
# chain 2: MADIKTGIFAKNVQKRLNRAQEKVLQKLGKADETKDEQFEEYVQNFKRQEAEGTRLQRELRGYLAAIKGMQEASMKLTESLHEVYEPDWYGREDVKMVGEKCDVLWEDFHQKLVDGSLLTLDTYLGQFPDIKNRIAKRSRKLVDYDSARHHLEALQSSKRKDESRISKAEEEFQKAQKVFEEFNVDLQEELPSLWSRRVGFYVNTFKNVSSLEAKFHKEIAVLCHKLYEVMTKLGDQHADKAFSIQGAPSDSGPLRIAKTPSPPEEASPLPSPTASPNHTLAPASPAPVRPRSPSQTRKGPPVPPLPKVTPTKELQQENIINFFEDNFVPEINVTTPSQNEVLEVKKEETLLDLDFDPFKPDVTPAGSAAATHSPMSQTLPWDLWTTSTDLVQPASGGSFNDFTQPQDTSLFTMQTDQNMAETEQALPTEPQAEEPPTTAAAPTAGLDLGLEMEEPKEEAAIPPGTDAGETVGTEGSTGEEAEAEKAALPAGEGESPEGAKIDVESTELASSESPQAAELEAGAPQEKVIPSVVIEPASNHEGEEHQETTTGTETREATEDVAPQGPAGEKQELATEPTPLDSQAATPAPAGAVDASLSAGDAAQELPPGFLYKVETLHDFEAANSDELTLQRGDVVLVVPSDSEADQDAGWLVGVKESDWLQYRDLATYKGLFPENFTRHLE
# B2: GST-Dyn1xA-PRR (dynamin 1xA proline-rich region, amino acids 746-864) [rat] / Endophilin A1 [rat (endogenous in rat brain synaptosomes)] (parent)
# chain 1: B1 chain 1
# chain 2: MSVAGLKKQFHKATQKVSEKVGGAEGTKLDDDFKEMERKVDVTSRAVMEIMTKTIEYLQPNPASRAKLSMINTMSKIRGQEKGPGYPQAEALLAEAMLKFGRELGDDCNFGPALGEVGEAMRELSEVKDSLDMEVKQNFIDPLQNLHDKDLREIQHHLKKLEGRRLDFDYKKKRQGKIPDEELRQALEKFDESKEIAESSMFNLLEMDIEQVSQLSALVQAQLEYHKQAVQILQQVTVRLEERIRQASSQPRREYQPKPRMSLEFATGDGTQPNGGLSHTGTPKPAGVQMDQPCCRALYDFEPENEGELGFKEGDIITLTNQIDENWYEGMLHGQSGFFPINYVEILVALPH
# Variants of: B1
# Assay: GST pull-down, densitometric analysis of Western blots
# Details: with Amphiphysin 1 [rat (endogenous in rat brain synaptosomes)]; parent: 100; read off a plot
row,percent of parent [%],Variant
1,91,chain 1 NTTTVSTPMPPPVDDSWLQVQSVPAGRRSPTSSPTPQRRAPAVPPARPGSRGPAPGPPPAGSALGGAPPVPSRPGASPDPFGPPPQVPSRPNRAPPGVPSRSGQAEPSRPEEPRPPFDL
2,98,chain 1 NTTTVSTPMPPPVDDSWLQVQSVPAGRREPTSEPTPQRRAPAVPPARPGSRGPAPGPPPAGSALGGAPPVPSRPGASPDPFGPPPQVPSRPNRAPPGVPSRSGQASPSRPESPRPPFDL

# Variants of: B2
# Assay: as above
# Details: with Endophilin A1 [rat (endogenous in rat brain synaptosomes)]; parent: 100; read off a plot
row,percent of parent [%],Variant
1,48,chain 1 S106E S112E
2,31,chain 1 S29E S33E
